This test addresses CD36 (human (endogenous in primary monocytes)) (UniProt P16671).

The values below come from paper PMC4690146.

Sequence of UniProt P16671 (P16671 whole entry): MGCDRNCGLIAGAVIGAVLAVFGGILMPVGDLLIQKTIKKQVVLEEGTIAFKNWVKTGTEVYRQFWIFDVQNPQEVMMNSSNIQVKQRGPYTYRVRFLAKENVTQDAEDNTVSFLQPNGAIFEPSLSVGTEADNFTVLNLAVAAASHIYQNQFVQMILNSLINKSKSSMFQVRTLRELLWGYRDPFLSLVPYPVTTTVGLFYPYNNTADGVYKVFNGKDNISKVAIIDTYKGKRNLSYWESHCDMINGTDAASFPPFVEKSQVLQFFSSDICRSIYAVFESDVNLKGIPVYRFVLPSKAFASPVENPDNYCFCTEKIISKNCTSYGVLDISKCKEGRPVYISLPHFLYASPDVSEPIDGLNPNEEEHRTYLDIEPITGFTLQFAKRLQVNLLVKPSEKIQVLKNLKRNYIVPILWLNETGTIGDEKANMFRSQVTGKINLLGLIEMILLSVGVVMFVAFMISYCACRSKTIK

The substance bovine lactoferrin (natural protein) registered a CD36 surface expression on Mo (flow cytometry, percentage of CD36 positive cells) after bLF 100 μg/mL for 18 h (% CD36 positive cells) of under 30.
